Source: publication PMC9482650, “Quantitative fragmentomics allow affinity mapping of interactomes” (Nature Communications, 2022)
Blank lines part the entries; values can stand above or below the binder they belong to.

Assays:
Assay in all cases: holdup assay
Parameters in all cases: key: below the threshold = too weak to quantify, mostly under pKd 3.1 to 4
GORASP2, Q9H8Y8 = molecular target: GORASP2, Q9H8Y8
FRMPD4, Q14CM0 = molecular target: FRMPD4, Q14CM0
SCRIB_1, Q14160 = molecular target: SCRIB_1, Q14160
Sequence of SCRIB_1, Q14160 (Q14160 718-814): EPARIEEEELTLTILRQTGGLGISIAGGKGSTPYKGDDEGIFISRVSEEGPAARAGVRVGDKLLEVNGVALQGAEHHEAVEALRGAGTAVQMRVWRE

MAGI1_1, Q96QZ7 = molecular target: MAGI1_1, Q96QZ7
Sequence of MAGI1_1, Q96QZ7 (Q96QZ7 1-106): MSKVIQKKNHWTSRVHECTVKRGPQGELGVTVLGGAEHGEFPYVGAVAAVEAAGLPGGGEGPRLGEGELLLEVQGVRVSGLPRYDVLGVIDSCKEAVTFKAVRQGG

DLG3_1, Q92796 = molecular target: T1, DLG3_1, Q92796
T1 sequence (Q92796 125-227, limits assumed, looked up): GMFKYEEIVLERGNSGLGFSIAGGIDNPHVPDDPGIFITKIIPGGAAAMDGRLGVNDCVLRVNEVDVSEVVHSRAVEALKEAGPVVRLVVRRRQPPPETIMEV

FRMPD1, Q5SYB0 = molecular target: T2, FRMPD1, Q5SYB0
T2 sequence (Q5SYB0 52-145, limits assumed, looked up): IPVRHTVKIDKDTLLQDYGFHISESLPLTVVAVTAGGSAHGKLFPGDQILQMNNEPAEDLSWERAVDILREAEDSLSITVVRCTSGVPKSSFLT

LIN7A, O14910 = molecular target: T3, LIN7A, O14910
T3 sequence (O14910 103-200, limits assumed, looked up): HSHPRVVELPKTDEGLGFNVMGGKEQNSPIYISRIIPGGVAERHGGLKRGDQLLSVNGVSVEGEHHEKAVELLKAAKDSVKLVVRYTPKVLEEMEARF

DLG2_2, Q15700 = molecular target: DLG2_2, Q15700
Sequence of DLG2_2, Q15700 (Q15700 189-283): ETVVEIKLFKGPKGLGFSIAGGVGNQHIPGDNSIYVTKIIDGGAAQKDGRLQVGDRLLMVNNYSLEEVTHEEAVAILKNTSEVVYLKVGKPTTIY

GRIP2_7, Q9C0E4 = molecular target: GRIP2_7, Q9C0E4
Sequence of GRIP2_7, Q9C0E4 (Q9C0E4 934-1023): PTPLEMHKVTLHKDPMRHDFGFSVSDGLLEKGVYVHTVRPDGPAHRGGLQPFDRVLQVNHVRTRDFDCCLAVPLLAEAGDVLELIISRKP

MAGI2_4, Q86UL8 = molecular target: MAGI2_4, Q86UL8
Sequence of MAGI2_4, Q86UL8 (Q86UL8 772-865): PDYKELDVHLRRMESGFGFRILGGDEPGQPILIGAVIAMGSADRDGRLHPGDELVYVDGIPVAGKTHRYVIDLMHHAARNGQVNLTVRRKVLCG

GRIP1_2, Q9Y3R0 = molecular target: T4, GRIP1_2, Q9Y3R0
T4 sequence (Q9Y3R0 145-248, limits assumed, looked up): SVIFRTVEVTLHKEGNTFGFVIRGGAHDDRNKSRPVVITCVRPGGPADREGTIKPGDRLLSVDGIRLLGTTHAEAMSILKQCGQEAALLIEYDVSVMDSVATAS

SNTA1, Q13424 = molecular target: T5, SNTA1, Q13424
T5 sequence (Q13424 82-180, limits assumed, looked up): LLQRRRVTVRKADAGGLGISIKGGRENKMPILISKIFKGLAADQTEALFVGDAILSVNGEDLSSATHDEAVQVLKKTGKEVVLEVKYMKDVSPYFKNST

IL16_3, Q14005 = molecular target: IL16_3, Q14005
Sequence of IL16_3, Q14005 (Q14005 1107-1207): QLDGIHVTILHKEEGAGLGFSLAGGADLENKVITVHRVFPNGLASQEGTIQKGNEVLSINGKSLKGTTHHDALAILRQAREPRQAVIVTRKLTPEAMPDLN

DFNB31_2, Q9P202 = molecular target: T6, DFNB31_2, Q9P202
T6 sequence (Q9P202 274-371, limits assumed, looked up): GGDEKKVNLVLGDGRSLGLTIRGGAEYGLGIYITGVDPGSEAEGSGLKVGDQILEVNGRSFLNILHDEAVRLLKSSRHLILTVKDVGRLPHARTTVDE

APBA1_1, Q02410 = molecular target: T7, APBA1_1, Q02410
T7 sequence (Q02410 651-752, limits assumed, looked up): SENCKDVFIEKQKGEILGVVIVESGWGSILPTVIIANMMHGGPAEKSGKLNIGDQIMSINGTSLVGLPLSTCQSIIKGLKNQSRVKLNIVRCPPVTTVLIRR

HTRA1, Q92743 = molecular target: HTRA1, Q92743
Sequence of HTRA1, Q92743 (Q92743 360-477): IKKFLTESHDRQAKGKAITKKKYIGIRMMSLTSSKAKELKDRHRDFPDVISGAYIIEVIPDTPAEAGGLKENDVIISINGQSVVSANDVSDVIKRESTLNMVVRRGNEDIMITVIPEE

PARD3B_1, Q8TEW8 = molecular target: T8, PARD3B_1, Q8TEW8
T8 sequence (Q8TEW8 196-299, limits assumed, looked up): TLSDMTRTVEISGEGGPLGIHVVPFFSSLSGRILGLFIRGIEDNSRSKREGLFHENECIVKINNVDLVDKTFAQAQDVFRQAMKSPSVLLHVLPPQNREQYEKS

MPP2, Q14168 = molecular target: T9, MPP2, Q14168
T9 sequence (Q14168 180-250, limits assumed, looked up): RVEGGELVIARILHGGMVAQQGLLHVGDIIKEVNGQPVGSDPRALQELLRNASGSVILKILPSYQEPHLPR

DFNB31_3, Q9P202 = molecular target: T10, DFNB31_3, Q9P202
T10 sequence (Q9P202 811-907, limits assumed, looked up): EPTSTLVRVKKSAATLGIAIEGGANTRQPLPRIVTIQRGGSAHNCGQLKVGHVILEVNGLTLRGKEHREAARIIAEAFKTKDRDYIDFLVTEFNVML

MAGI2_6, Q86UL8 = molecular target: MAGI2_6, Q86UL8
Sequence of MAGI2_6, Q86UL8 (Q86UL8 1141-1229): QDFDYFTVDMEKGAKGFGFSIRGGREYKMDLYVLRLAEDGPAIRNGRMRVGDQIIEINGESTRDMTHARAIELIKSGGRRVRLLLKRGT

APBA2_2, Q99767 = molecular target: T11, APBA2_2, Q99767
T11 sequence (Q99767 654-744, limits assumed, looked up): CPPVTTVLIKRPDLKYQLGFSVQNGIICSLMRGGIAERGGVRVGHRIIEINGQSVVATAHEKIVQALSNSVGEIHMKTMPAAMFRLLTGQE

MAST2, Q6P0Q8 = molecular target: MAST2, Q6P0Q8
Sequence of MAST2, Q6P0Q8 (Q6P0Q8 1099-1202): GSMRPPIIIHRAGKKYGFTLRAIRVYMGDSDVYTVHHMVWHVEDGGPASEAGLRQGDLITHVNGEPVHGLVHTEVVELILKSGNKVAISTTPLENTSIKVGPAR

LNX1_2, Q8TBB1 = molecular target: LNX1_2, Q8TBB1
Sequence of LNX1_2, Q8TBB1 (Q8TBB1 371-470): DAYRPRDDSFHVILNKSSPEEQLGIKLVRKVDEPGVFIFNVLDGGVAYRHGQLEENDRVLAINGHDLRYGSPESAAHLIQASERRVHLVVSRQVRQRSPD

GRASP, Q7Z6J2 = molecular target: GRASP, Q7Z6J2
Sequence of GRASP, Q7Z6J2 (Q7Z6J2 96-193): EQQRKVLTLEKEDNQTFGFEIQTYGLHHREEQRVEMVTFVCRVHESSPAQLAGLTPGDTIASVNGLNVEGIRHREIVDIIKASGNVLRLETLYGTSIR

HTRA4, P83105 = molecular target: T12, HTRA4, P83105
T12 sequence (P83105 378-476, limits assumed, looked up): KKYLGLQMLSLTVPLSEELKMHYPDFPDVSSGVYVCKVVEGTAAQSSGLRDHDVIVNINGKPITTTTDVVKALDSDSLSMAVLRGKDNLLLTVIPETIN

[1] = plain residues with an end cap or a label only (N-terminal biotin on a linker: ttds)
[2] = plain residues with an end cap or a label only (N-terminal biotin on a linker: ado-ado)

Sequence of FRMPD4, Q14CM0 (Q14CM0 67-160): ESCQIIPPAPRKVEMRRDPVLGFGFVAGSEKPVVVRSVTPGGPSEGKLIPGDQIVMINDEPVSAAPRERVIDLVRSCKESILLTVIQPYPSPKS

pKd (GORASP2, Q9H8Y8; [1]): 3.9
pKd (FRMPD4, Q14CM0; [1]): below the threshold
pKd (SCRIB_1, Q14160; [1]): 3.72
pKd (MAGI1_1, Q96QZ7; [1]): below the threshold
pKd (DLG3_1, Q92796; [1]): below the threshold
pKd (FRMPD1, Q5SYB0; [1]): below the threshold
pKd (LIN7A, O14910; [1]): below the threshold
pKd (DLG2_2, Q15700; [1]): 4.16
pKd (GRIP2_7, Q9C0E4; [1]): below the threshold
pKd (MAGI2_4, Q86UL8; [1]): below the threshold
pKd (GRIP1_2, Q9Y3R0; [1]): below the threshold
pKd (SNTA1, Q13424; [1]): 4.97
pKd (IL16_3, Q14005; [1]): below the threshold
pKd (DFNB31_2, Q9P202; [1]): 4.74
pKd (APBA1_1, Q02410; [1]): below the threshold
pKd (HTRA1, Q92743; [1]): 4.03
pKd (PARD3B_1, Q8TEW8; [1]): 3.98
pKd (MPP2, Q14168; [1]): below the threshold
pKd (DFNB31_3, Q9P202; [1]): below the threshold
pKd (MAGI2_6, Q86UL8; [1]): 3.99
pKd (APBA2_2, Q99767; [1]): below the threshold
pKd (MAST2, Q6P0Q8; [1]): 4.69
pKd (LNX1_2, Q8TBB1; [1]): below the threshold
pKd (GRASP, Q7Z6J2; [1]): below the threshold
pKd (HTRA4, P83105; [1]): below the threshold
Binder: QFQYAKESYI [TAGAP, Q8N103]

pKd (GORASP2, Q9H8Y8; [2]): below the threshold
pKd (FRMPD4, Q14CM0; [2]): below the threshold
pKd (SCRIB_1, Q14160; [2]): 3.82
pKd (MAGI1_1, Q96QZ7; [2]): below the threshold
pKd (DLG3_1, Q92796; [2]): below the threshold
pKd (FRMPD1, Q5SYB0; [2]): below the threshold
pKd (LIN7A, O14910; [2]): below the threshold
pKd (DLG2_2, Q15700; [2]): 3.56
pKd (GRIP2_7, Q9C0E4; [2]): below the threshold
pKd (MAGI2_4, Q86UL8; [2]): below the threshold
pKd (GRIP1_2, Q9Y3R0; [2]): below the threshold
pKd (SNTA1, Q13424; [2]): 3.55
pKd (IL16_3, Q14005; [2]): below the threshold
pKd (DFNB31_2, Q9P202; [2]): 3.81
pKd (APBA1_1, Q02410; [2]): below the threshold
pKd (HTRA1, Q92743; [2]): below the threshold
pKd (PARD3B_1, Q8TEW8; [2]): below the threshold
pKd (MPP2, Q14168; [2]): below the threshold
pKd (DFNB31_3, Q9P202; [2]): 3.85
pKd (MAGI2_6, Q86UL8; [2]): below the threshold
pKd (APBA2_2, Q99767; [2]): below the threshold
pKd (MAST2, Q6P0Q8; [2]): 4.03
pKd (LNX1_2, Q8TBB1; [2]): below the threshold
pKd (GRASP, Q7Z6J2; [2]): below the threshold
pKd (HTRA4, P83105; [2]): 3.7
Binder: GKKSVKHSKI [ACOT6, Q3I5F7]

pKd (GORASP2, Q9H8Y8; [2]): below the threshold
pKd (FRMPD4, Q14CM0; [2]): below the threshold
pKd (SCRIB_1, Q14160; [2]): 4.57
pKd (MAGI1_1, Q96QZ7; [2]): below the threshold
pKd (DLG3_1, Q92796; [2]): 3.49
pKd (FRMPD1, Q5SYB0; [2]): below the threshold
pKd (LIN7A, O14910; [2]): below the threshold
pKd (DLG2_2, Q15700; [2]): 4.04
pKd (GRIP2_7, Q9C0E4; [2]): below the threshold
pKd (MAGI2_4, Q86UL8; [2]): below the threshold
pKd (GRIP1_2, Q9Y3R0; [2]): below the threshold
pKd (SNTA1, Q13424; [2]): 3.91
pKd (IL16_3, Q14005; [2]): below the threshold
pKd (DFNB31_2, Q9P202; [2]): below the threshold
pKd (APBA1_1, Q02410; [2]): below the threshold
pKd (HTRA1, Q92743; [2]): below the threshold
pKd (PARD3B_1, Q8TEW8; [2]): below the threshold
pKd (MPP2, Q14168; [2]): below the threshold
pKd (DFNB31_3, Q9P202; [2]): 3.57
pKd (MAGI2_6, Q86UL8; [2]): 3.66
pKd (APBA2_2, Q99767; [2]): below the threshold
pKd (MAST2, Q6P0Q8; [2]): 5.35
pKd (LNX1_2, Q8TBB1; [2]): below the threshold
pKd (GRASP, Q7Z6J2; [2]): 5.13
pKd (HTRA4, P83105; [2]): below the threshold
Binder: FVHPILQSAV [PRKCA, P17252]
